Measured values from PMC3773880 (Biochimica et biophysica acta, 2013).

B1: PD_(RgpA), recombinant N-terminal prodomain of RgpA (domain or fragment)
chain: QQTELGRNPNVRLLESTQQSVTKVQFRMDNLKFTEVQTPKGMAQVPTYTEGVNLSEKGMPTLPILSRSLAVSDTREMKVEVVSSKFIEKKNVLIAPSKGMIMRNEDPKKIPYVYGKSYSQNKFFPGEIATLDDPFILRDVRGQVVNFAPLQYNPVTKTLRIYTEITVAVSETSEQGKNILNKKGTFAGFEDTYKRMFMNYEPGR
B2: PD_(RgpB), recombinant N-terminal prodomain of RgpB (domain or fragment)
chain: GPLGSQPAERGRNPQVRLLSAEQSMSKVQFRMDNLQFTGVQTSKGVAQVPTFTEGVNISEKGTPILPILSRSLAVSETRAMKVEVVSSKFIEKKDVLIAPSKGVISRAENPDQIPYVYGQSYNEDKFFPGEIATLSDPFILRDVRGQVVNFAPLQYNPVTKTLRIYTEIVVAVSETAEAGQNTISLVKNSTFTGFEDIYKSVFMNYEATR

Columns and labels:
gingipain K (Kgp) = gingipain K (Kgp) (Porphyromonas gingivalis); experiment: enzyme inhibition kinetics
[1] = target: T1, low molecular weight gingipain R (RgpB) (Porphyromonas gingivalis, UniProt P95493 230-664); experiment: enzyme inhibition kinetics
[2] = target: T1, low molecular weight gingipain R (RgpB); experiment: cell-based or functional assay
[3] = target: T1, low molecular weight gingipain R (RgpB); experiment: enzyme inhibition kinetics; remark: listed apart in the source
[4] = target: T1, low molecular weight gingipain R (RgpB); experiment: SEC
[5] = target: membrane-type RgpB (mt-RgpB), glycosylated (Porphyromonas gingivalis, UniProt P95493 230-736, heavily glycosylated); experiment: cell-based or functional assay
[6] = target: T1, low molecular weight gingipain R (RgpB); experiment: cell-based or functional assay; remark: listed apart in the source

| Binder | Ki (gingipain K (Kgp)) | Ki [1] | IC50 of inhibition of amidolytic activity (L-BAPNA), 10 nM enzyme [2] | IC50 of inhibition of aminopeptidase activity (H-Arg-AMC), 10 nM enzyme [2] | IC50 of inhibition of proteolytic activity (Azocoll), 10 nM enzyme [2] | koff [3] | kon [3] | stoichiometry N [4] | IC50 of inhibition of Rgp activity (L-BAPNA): mt-RgpB (purified) [5] | IC50 of inhibition of Rgp activity (L-BAPNA): RgpB (purified non-glycosylated) [6] |
| --- | --- | --- | --- | --- | --- | --- | --- | --- | --- | --- |
| B1 | > 5000 nM | 2.1 nM | 15.7 nM | 6.9 nM | 7.3 nM | 1.3e-05 s⁻¹ | 6070 M⁻¹ s⁻¹ |  |  |  |
| B2 | > 5000 nM | 6.2 nM | 23.7 nM | 7.2 nM | 7.1 nM | 3.1e-05 s⁻¹ | 5020 M⁻¹ s⁻¹ | 1 | 188 nM | 15 nM |
